B1: 15.18 (ssRNA)
RNA: GGGAGACAAGAAUAAACGCUCAAUUCAACGCUGUGAAGGGCUUAUAUGAGCGGAUUACCCUUCGACAGGAGGCUCACAACAGGC
modifications: 2'-F C and U
B2: 17.2 (ssRNA)
RNA: GGGAGACAAGAAUAAACGCUCAAUUCUACGCUGUGAAGGGCUUAUAUGAGCGGAUUACCCUUCGACAGGAGGCUCACAACAGGC
modifications: 2'-F C and U
B3: 15.3 (17.17) (ssRNA)
RNA: GGGAGACAAGAAUAAACGCUCAAUUCAACGUUGUCCAAGGGCUUAUAUGAGCGGAUUACCCUUCGACAGGAGGCUCACAACAGGC
modifications: 2'-F C and U
B4: 17.13 (ssRNA)
RNA: GGGAGACAAGAAUAAACGCUCAAUUCAACGCUGUCCAAGGGCUUAUAUGGGCGGAUUACCCUUCGACAGGAGGCUCACAACAGGC
modifications: 2'-F C and U
B5: 17.8 (ssRNA)
RNA: GGGAGACAAGAAUAAACGCUCAAUUCAACGUUGUCUAAGGGCUUAUAUGAGCGGAUUACCCUUCGACAGGAGGCUCACAACAGGC
modifications: 2'-F C and U
B6: 15.10 (ssRNA)
RNA: GGGAGACAAGAAUAAACGCUCAAUUCAACGCUGUUCAAGGGCUUAUAUGAGCGGAUUACCCUUCGACAGGAGGCUCACAACAGGC
modifications: 2'-F C and U
B7: 15.20 (ssRNA)
RNA: GGGAGACAAGAAUAAACGCUCAAUUCAACGCUGUCCAAGGGCUUAUAUGAGCGCAUUAUACCCUUCGACAGGAGGCUCACAACAGGC
modifications: 2'-F C and U
B8: 15.50 (17.3) (ssRNA)
RNA: GGGAGACAAGAAUAAACGCUCAAUUCGACGCUGUGAAGGGCUUAUACGAGCGGAUUACCCUUCGACAGGAGGCUCACAACAGGC
modifications: 2'-F C and U
B9: 15.17 (ssRNA)
RNA: GGGAGACAAGAAUAAACGCUCAAUUCAACGUUGUCAAAGGGCUUAUACGGGCGGAUUACCCUUCGACAGGAGGCUCACAACAGGC
modifications: 2'-F C and U
B10: 15.46 (17.20) (ssRNA)
RNA: GGGAGACAAGAAUAAACGCUCAAUUCGACGCUGUGAAGGGCUUAUAUGAGCGGAUUACCCUUCGACAGGAGGCUCACAACAGGC
modifications: 2'-F C and U
B11: 15.43 (ssRNA)
RNA: GGGAGACAAGAAUAAACGCUCAACGCCGUUAUCACGACGUGCGUUCUGGGCGGUACUCGCGCAUUCGACAGGAGGCUCACAACAGGC
modifications: 2'-F C and U
B12: 7.38 (ssRNA)
RNA: GGGAGACAAGAAUAAACGCUCAAUUCAACGCUGUCCAAGGGCUUAUAUGAGCGCGUUAUACCCUUCGACAGGAGGCUCACAACAGGC
modifications: 2'-F C and U
B13: 15.53 (ssRNA)
RNA: GGGAGACAAGAAUAAACGCUCAAUUCAACGCUGUCCUAGGGCUUAUAUGAGCGCAGGAUACCCUUCGACAGGAGGCUCACAACAGGC
modifications: 2'-F C and U
B14: 15.34 (ssRNA)
RNA: GGGAGACAAGAAUAAACGCUCAAUCCCACCCUGCCUUGUCUGUUUGAUAGAGACACUGUCCUUUUCGACAGGAGGCUCACAACAGGC
modifications: 2'-F C and U
B15: 15.21 (ssRNA)
RNA: GGGAGACAAGAAUAAACGCUCAACGGUGAAGACCUCUAUUAACAACAUGACCUGCCUGCGUUGUUCGACAGGAGGCUCACAACAGGC
modifications: 2'-F C and U
B16: 7.54 (ssRNA)
RNA: GGGAGACAAGAAUAAACGCUCAAUUCGACGCUGUUCAAGGGCUUAUAUGAGCGCGUUAUACCCUUCGACAGGAGGCUCACAACAGGC
modifications: 2'-F C and U
B17: 17.1 (ssRNA)
RNA: GGGAGACAAGAAUAAACGCUCAAUUCAACGCUGUCAAAGGGCUUAUAUAAGCGGAUUACCCUUCGACAGGAGGCUCACAACAGGC
modifications: 2'-F C and U

The binders below were run against integrin alphaV beta3 (Homo sapiens, UniProt P06756;P06756;P05106 P06756:31-889,P06756:891-1048,P05106:27-788) (assay: microtiter plate, streptavidin-AP; Mg2+, Ca2+, Mn2+, pH 7.5, 37 C). Details: label: 5'-biotin.
Chain of integrin alphaV beta3 (P06756 31-889, chain 1 of 3): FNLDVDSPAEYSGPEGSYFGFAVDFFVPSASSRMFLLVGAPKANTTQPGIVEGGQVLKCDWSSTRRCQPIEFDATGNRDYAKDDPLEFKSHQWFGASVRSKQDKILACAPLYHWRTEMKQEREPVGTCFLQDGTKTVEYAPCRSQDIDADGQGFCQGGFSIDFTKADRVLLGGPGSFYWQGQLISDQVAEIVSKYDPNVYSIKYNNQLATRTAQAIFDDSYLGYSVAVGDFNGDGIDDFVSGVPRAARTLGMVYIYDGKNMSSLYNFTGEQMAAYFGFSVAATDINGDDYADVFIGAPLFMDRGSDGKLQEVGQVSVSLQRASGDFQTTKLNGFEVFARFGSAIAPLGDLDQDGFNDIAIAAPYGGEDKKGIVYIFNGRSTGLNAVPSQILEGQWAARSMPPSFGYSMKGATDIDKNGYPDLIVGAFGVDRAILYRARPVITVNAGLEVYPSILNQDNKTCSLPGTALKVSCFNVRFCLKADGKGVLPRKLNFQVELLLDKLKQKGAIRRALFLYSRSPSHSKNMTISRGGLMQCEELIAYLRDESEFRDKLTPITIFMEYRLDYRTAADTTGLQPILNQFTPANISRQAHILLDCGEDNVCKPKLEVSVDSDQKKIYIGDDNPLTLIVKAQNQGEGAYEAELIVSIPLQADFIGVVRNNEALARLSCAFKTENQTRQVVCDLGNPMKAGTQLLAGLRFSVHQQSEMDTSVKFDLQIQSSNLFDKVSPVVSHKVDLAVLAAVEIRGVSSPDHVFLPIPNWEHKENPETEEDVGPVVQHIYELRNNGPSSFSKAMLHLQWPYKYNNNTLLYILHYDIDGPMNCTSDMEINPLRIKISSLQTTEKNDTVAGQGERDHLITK
Chain of integrin alphaV beta3 (P06756 891-1048, chain 2 of 3): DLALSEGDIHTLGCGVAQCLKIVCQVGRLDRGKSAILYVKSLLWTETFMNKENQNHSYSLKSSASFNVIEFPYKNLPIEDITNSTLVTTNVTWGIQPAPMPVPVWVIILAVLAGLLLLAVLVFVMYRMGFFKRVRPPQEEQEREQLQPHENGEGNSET
Chain of integrin alphaV beta3 (P05106 27-788, chain 3 of 3): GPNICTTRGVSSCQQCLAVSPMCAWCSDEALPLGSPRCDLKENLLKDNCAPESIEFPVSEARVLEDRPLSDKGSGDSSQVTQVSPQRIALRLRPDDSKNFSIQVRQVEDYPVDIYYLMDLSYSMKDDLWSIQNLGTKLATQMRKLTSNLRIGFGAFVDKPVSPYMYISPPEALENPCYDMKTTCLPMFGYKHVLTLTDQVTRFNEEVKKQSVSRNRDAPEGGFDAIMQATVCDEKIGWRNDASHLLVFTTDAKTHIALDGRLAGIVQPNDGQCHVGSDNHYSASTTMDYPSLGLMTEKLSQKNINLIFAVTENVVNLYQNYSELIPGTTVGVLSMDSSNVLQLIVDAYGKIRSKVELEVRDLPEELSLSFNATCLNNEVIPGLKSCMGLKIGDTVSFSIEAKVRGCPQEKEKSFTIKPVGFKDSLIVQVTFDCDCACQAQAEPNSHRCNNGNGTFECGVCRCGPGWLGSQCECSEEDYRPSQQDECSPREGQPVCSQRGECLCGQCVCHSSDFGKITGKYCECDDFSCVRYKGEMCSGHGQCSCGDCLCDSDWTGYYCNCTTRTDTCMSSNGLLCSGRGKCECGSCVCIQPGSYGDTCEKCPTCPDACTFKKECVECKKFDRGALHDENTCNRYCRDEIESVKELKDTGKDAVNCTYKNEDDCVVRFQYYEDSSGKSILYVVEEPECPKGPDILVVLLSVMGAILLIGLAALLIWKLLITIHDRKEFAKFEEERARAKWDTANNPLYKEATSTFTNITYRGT
Experimental: The affinity of individual RNAs and RNA pools for αᵥβ₃ was determined by titration of biotinylated RNA with a small quantity of immobilized integrin. Bound RNA was detected through the biotin moiety. Biotinylated RNA was prepared according to standard transcription protocols, but including a 5-fold molar excess of a 5′-biotin-modified GMP over GTP in the reaction mixture. Methods for synthesizing 5′-biotin-modified guanosine nucleotides are described in WO 98/30720 entitled “Bioconjugation of Oligonucleotides,” specifically incorporated herein by reference in its entirety. The modified nucleotide is incorporated at the 5′ end of the transcript in proportion to its representation in the guanosine pool. 96-well microtiter plates (Immulon 2, Dynatech Laboratories, Inc., Chantilly, Va.) were coated overnight at 4° C. with 100 μL purified αᵥβ₃ at a concentration of 0.25 μg/mL in 20 mM TrisHCl, pH 7.5, 150 mM NaCl, 1 mM MgCl₂, 2 mM CaCl₂, 0.1 mM MnCl₂. Coating concentrations were 0.8 μg/mL for αIIbβ₃ and 0.3 μg/mL for αᵥβ₅. Wells were blocked with 200 μL of a solution of 3% BSA in the same buffer (1 hour at room temperature) then rinsed 3 times with 200 μL binding buffer (50 mM TrisHCl, pH 7.5, 137 mM NaCl, 2.7 mM KCl, 1 mM MgCl₂, 2 mM CaCl₂, 0.1 mM MnCl₂, 0.1% BSA). Individual RNAs or RNA pools were denatured briefly at 93° C. in binding buffer without divalent cations or BSA, then serially diluted in the same buffer. 50 μL binding buffer containing 2×-concentrations of divalent cations and BSA were added to each well, followed by 50 μL RNA dilution. RNAs were allowed to incubate in the integrin-coated wells at 37° C. for 30-60 minutes. Unbound RNAs were removed by 3 rapid washes in binding buffer. To detect bound RNA, 100 μL of a 1:2500 dilution in binding buffer of streptavidin-alkaline phosphatase conjugate (Calbiochem) were incubated in each well for 30 minutes at room temperature, followed by three rapid washes, as above. 100 μL/well p-nitrophenyl phosphate (Sigma Chemical Co., St. Louis, Mo.) was added and incubated at room temperature for 30 minutes. Color development was monitored by absorbance at 405 nm.

B1 and B2 are the same in Kd: 2 nM for the first, 2 nM for the second.

B3 and B4 are within 1.5-fold of each other in Kd: 8 nM for the first, 10 nM for the second.

B5 and B6 are within 1.5-fold of each other in Kd: 18 nM for the first, 20 nM for the second.

Going from B7 to B8, the Kd rises from 20 nM to 30 nM (1.5-fold).

Compared with B9, B10 is 10-fold higher in Kd: 4 nM for the first, 40 nM for the second. The first binds more tightly here.

B11 and B12 are within 1.5-fold of each other in Kd: 45 nM for the first, 49 nM for the second.

Compared with B13, B14 is 2.7-fold higher in Kd: 70 nM for the first, 190 nM for the second.

B15 and B16 are within 1.5-fold of each other in Kd: 200 nM for the first, 230 nM for the second.

B17 showed a Kd of 380 nM.

— patent publication US20020150536, “Nucleic acid ligands to integrins” (GILEAD SCIENCES, INC., published 2002)
